doi:10.1101/2021.03.04.433768 (bioRxiv, 2021)

Molecular target: HexaPro, a prefusion construct of the SARS-CoV-2 spike (SARS-CoV-2, Wuhan-Hu-1 reference spike …, UniProt P0DTC2, stabilised)
Experiment: negative-stain EM

B1: Nb56 (llama nanobody, monomer) (VHH)
VHH: QVQLQESGGGLVQAGDSLRLSCVASERTFRRYGMGWFRQAPGKEREFVAAVDRSHTKTGYADFVKGRFTISTNYENMVYLQMNSLKPEDTAVYYCAAPSYEKGSDPTSWNTDRGYDYWGQGTQVTVSS
binding result: binds
